According to patent CN114920842A (HUALAN GENE ENG CO LTD, dated 2022):

T1: 重组人PLVAP/PV-1蛋白 (human, UniProt Q9BX97 49-442, limits assumed)
T1 construct: Bought reagent (Abcam); Coupled to a CM5 chip in the SPR assay; also called 质膜膜泡关联蛋白
T1 sequence (looked up): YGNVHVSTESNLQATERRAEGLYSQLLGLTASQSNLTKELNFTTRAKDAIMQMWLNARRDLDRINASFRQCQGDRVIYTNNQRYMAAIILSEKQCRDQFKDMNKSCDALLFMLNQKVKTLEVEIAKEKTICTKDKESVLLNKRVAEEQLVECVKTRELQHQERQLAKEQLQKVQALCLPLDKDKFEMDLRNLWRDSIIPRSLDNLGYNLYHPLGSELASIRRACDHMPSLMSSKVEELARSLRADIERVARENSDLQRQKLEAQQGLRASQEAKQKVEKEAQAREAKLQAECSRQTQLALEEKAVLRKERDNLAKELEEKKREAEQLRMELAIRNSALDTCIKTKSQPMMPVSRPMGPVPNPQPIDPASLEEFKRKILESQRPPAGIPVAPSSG


Molecular target: T1, 重组人PLVAP/PV-1蛋白
Assay: SPR, Biacore T200, PV-1 coupled to CM5 chip, antibody as analyte, 25℃, 1:1 fit

倍数 (fold against HLPV-P00) [fold]	Binder
23.4	HLPV-P10 (antibody, IgG1, V domains shown, Full IgG1/kappa antibody; not shown: human IgG1 heavy chain constant region, UniProtKB P01857.1; human Kappa light chain constant region, UniProtKB P01834.2) VH: QVQLVQSGAEVKKPGASVKVSCKASGYTFTDYYMYWVRQAPGQGLEWIGEINPTQGDVNFNEMFKSRVTMTVDTSTSTAYMELSSLRSEDTAVYYCTSIFYWGQGTLVTVSS VL: DIVMTQSPSSLSASVGDRVTITCKASQDIKYQLTWYQQKPGKAPKTLIYYATDLADGVPSRFSGSGSGQEFTLTISSLQPEDFATYYCVQHSDRPFTFGQGTKLEIK
36.8	HLPV-P09 (antibody, IgG1, V domains shown, Full IgG1/kappa antibody; not shown: human IgG1 heavy chain constant region, UniProtKB P01857.1; human Kappa light chain constant region, UniProtKB P01834.2) VH: QVQLVQSGAEVKKPGASVKVSCKASGYTFTDYYMYWVRQAPGQGLEWIGEINPTQGDVNFNEMFKSRVTMTVDTSTSTAYMELSSLRSEDTAVYYCTTIFYWGQGTLVTVSS VL: DIVMTQSPSSLSASVGDRVTITCKASQDIGYQLSWYQQKPGKAPKTLIYYATDLADGVPSRFSGSGSGQEFTLTISSLQPEDFATYYCVQHYDRPFTFGQGTKLEIK
40.5	HLPV-P11 (antibody, IgG1, V domains shown, Full IgG1/kappa antibody; not shown: human IgG1 heavy chain constant region, UniProtKB P01857.1; human Kappa light chain constant region, UniProtKB P01834.2) VH: QVQLVQSGAEVKKPGASVKVSCKASGYTFTDYYMYWVRQAPGQGLEWIGEINPTQGDVNFNEMFKSRVTMTVDTSTSTAYMELSSLRSEDTAVYYCTTIFYWGQGTLVTVSS VL: DIVMTQSPSSLSASVGDRVTITCKASQDIKYQLSWYQQKPGKAPKTLIYYATDLADGVPSRFSGSGSGQEFTLTISSLQPEDFATYYCVQHDDRPFSFGQGTKLEIK
8.95	HLPV-P06 (antibody, IgG1, V domains shown, Full IgG1/kappa antibody; not shown: human IgG1 heavy chain constant region, UniProtKB P01857.1; human Kappa light chain constant region, UniProtKB P01834.2) VH: QVQLVQSGAEVKKPGASVKVSCKASGYTFTAYYMYWVRQAPGQGLEWIGEINPTSGDVNFNEMFKSRVTMTVDTSTSTAYMELSSLRSEDTAVYYCTSIFYWGQGTLVTVSS VL: DIVMTQSPSSLSASVGDRVTITCKASQDIKYQLSWYQQKPGKAPKTLIYYATFLADGVPSRFSGSGSGQEFTLTISSLQPEDFATYYCVQHDDRPFTFGQGTKLEIK
9.29	HLPV-P13 (antibody, IgG1, V domains shown, Full IgG1/kappa antibody; not shown: human IgG1 heavy chain constant region, UniProtKB P01857.1; human Kappa light chain constant region, UniProtKB P01834.2) VH: QVQLVQSGAEVKKPGASVKVSCKASGYVFTDYYMYWVRQAPGQGLEWIGEINPTSGDVNFNEMFKSRVTMTVDTSTSTAYMELSSLRSEDTAVYYCTSIFYWGQGTLVTVSS VL: DIVMTQSPSSLSASVGDRVTITCKASQDIKYQLSWYQQKPGKAPKTLIYYAGDLADGVPSRFSGSGSGQEFTLTISSLQPEDFATYYCVQHDDRPFTFGQGTKLEIK
8.58	HLPV-P14 (antibody, IgG1, V domains shown, Full IgG1/kappa antibody; not shown: human IgG1 heavy chain constant region, UniProtKB P01857.1; human Kappa light chain constant region, UniProtKB P01834.2) VH: QVQLVQSGAEVKKPGASVKVSCKASGYTFTNYYMYWVRQAPGQGLEWIGEINPTSGDVNFNEMFKSRVTMTVDTSTSTAYMELSSLRSEDTAVYYCTSIFYWGQGTLVTVSS VL: DIVMTQSPSSLSASVGDRVTITCKASQDIKYQLSWYQQKPGKAPKTLIYYAGDLADGVPSRFSGSGSGQEFTLTISSLQPEDFATYYCVQHDDRPFTFGQGTKLEIK
38.4	HLPV-P08 (antibody, IgG1, V domains shown, Full IgG1/kappa antibody; not shown: human IgG1 heavy chain constant region, UniProtKB P01857.1; human Kappa light chain constant region, UniProtKB P01834.2) VH: QVQLVQSGAEVKKPGASVKVSCKASGYTFTDYYMYWVRQAPGQGLEWIGEINPTQGDVNFNEMFKSRVTMTVDTSTSTAYMELSSLRSEDTAVYYCTTIFYWGQGTLVTVSS VL: DIVMTQSPSSLSASVGDRVTITCKASQDIKYQLTWYQQKPGKAPKTLIYYATDLADGVPSRFSGSGSGQEFTLTISSLQPEDFATYYCVSHDDRPFTFGQGTKLEIK
4.1	HLPV-P12 (antibody, IgG1, V domains shown, Full IgG1/kappa antibody; not shown: human IgG1 heavy chain constant region, UniProtKB P01857.1; human Kappa light chain constant region, UniProtKB P01834.2) VH: QVQLVQSGAEVKKPGASVKVSCKASGYTFTDYYMYWVRQAPGQGLEWIGEINPSQGDVNFNEMFKSRVTMTVDTSTSTAYMELSSLRSEDTAVYYCTSIFYWGQGTLVTVSS VL: DIVMTQSPSSLSASVGDRVTITCKASQDIKYQLSWYQQKPGKAPKTLIYYATDRADGVPSRFSGSGSGQEFTLTISSLQPEDFATYYCVQHDDRPFTFGQGTKLEIK
11.4	HLPV-P07 (antibody, IgG1, V domains shown, Full IgG1/kappa antibody; not shown: human IgG1 heavy chain constant region, UniProtKB P01857.1; human Kappa light chain constant region, UniProtKB P01834.2) VH: QVQLVQSGAEVKKPGASVKVSCKASGYTFEDYYMYWVRQAPGQGLEWIGEINPTQGDVRFNEMFKSRVTMTVDTSTSTAYMELSSLRSEDTAVYYCTSIFYWGQGTLVTVSS VL: DIVMTQSPSSLSASVGDRVTITCKASQDIKYQLSWYQQKPGKAPKTLIYYATYLADGVPSRFSGSGSGQEFTLTISSLQPEDFATYYCVQHDDRPFTFGQGTKLEIK

Second part, the binder before the results:

Binder	倍数 (fold against HLPV-P00) [fold]
HLPV-P01 (antibody, IgG1, V domains shown, Full IgG1/kappa antibody; also called 中间抗体; not shown: human IgG1 heavy chain constant region, UniProtKB P01857.1; human Kappa light chain constant region, UniProtKB P01834.2) VH: QVQLVQSGAEVKKPGASVKVSCKASGYTFTDYYMYWVRQAPGQGLEWIGEINPTQGDVNFNEMFKSRVTMTVDTSTSTAYMELSSLRSEDTAVYYCTSIFYWGQGTLVTVSS VL: DIVMTQSPSSLSASVGDRVTITCKASQDIKYQLSWYQQKPGKAPKTLIYYATDLADGVPSRFSGSGSGQEFTLTISSLQPEDFATYYCVQHDDRPFTFGQGTKLEIK	7.31
HLPV-P05 (antibody, IgG1, V domains shown, Full IgG1/kappa antibody; not shown: human IgG1 heavy chain constant region, UniProtKB P01857.1; human Kappa light chain constant region, UniProtKB P01834.2) VH: QVQLVQSGAEVKKPGASVKVSCKASGYTFTDYYMYWVRQAPGQGLEWIGEINPTQGDVNFNEMFKSRVTMTVDTSTSTAYMELSSLRSEDTAVYYCTSIFYWGQGTLVTVSS VL: DIVMTQSPSSLSASVGDRVTITCKASQDIKYQLTWYQQKPGKAPKTLIYYATDLADGVPSRFSGSGSGQEFTLTISSLQPEDFATYYCVQHDNRPFTFGQGTKLEIK	25.8
HLPV-P03 (antibody, IgG1, V domains shown, Full IgG1/kappa antibody; not shown: human IgG1 heavy chain constant region, UniProtKB P01857.1; human Kappa light chain constant region, UniProtKB P01834.2) VH: QVQLVQSGAEVKKPGASVKVSCKASGYTFEDYYMYWVRQAPGQGLEWIGEVNPTQGDVNFNEMFKSRVTMTVDTSTSTAYMELSSLRSEDTAVYYCTSIFYWGQGTLVTVSS VL: DIVMTQSPSSLSASVGDRVTITCKASQDIKYQLSWYQQKPGKAPKTLIYYATFLADGVPSRFSGSGSGQEFTLTISSLQPEDFATYYCVQHDDRPFTFGQGTKLEIK	13.4
HLPV-P02 (antibody, IgG1, V domains shown, Full IgG1/kappa antibody; not shown: human IgG1 heavy chain constant region, UniProtKB P01857.1; human Kappa light chain constant region, UniProtKB P01834.2) VH: QVQLVQSGAEVKKPGASVKVSCKASGYVFTDYYMYWVRQAPGQGLEWIGEINPTTGDVNFNEMFKSRVTMTVDTSTSTAYMELSSLRSEDTAVYYCTSIFYWGQGTLVTVSS VL: DIVMTQSPSSLSASVGDRVTITCKASQDIKYQLSWYQQKPGKAPKTLIYYSTDLADGVPSRFSGSGSGQEFTLTISSLQPEDFATYYCVQHDDRPFTFGQGTKLEIK	6.29
HLPV-P04 (antibody, IgG1, V domains shown, Full IgG1/kappa antibody; not shown: human IgG1 heavy chain constant region, UniProtKB P01857.1; human Kappa light chain constant region, UniProtKB P01834.2) VH: QVQLVQSGAEVKKPGASVKVSCKASGYTFRDYYMYWVRQAPGQGLEWIGEINPTTGDVNFNEMFKSRVTMTVDTSTSTAYMELSSLRSEDTAVYYCTSIFYWGQGTLVTVSS VL: DIVMTQSPSSLSASVGDRVTITCKASQDIKYQLSWYQQKPGKAPKTLIYYATSLADGVPSRFSGSGSGQEFTLTISSLQPEDFATYYCVQHDDRPFTFGQGTKLEIK	14
HLPV-P00 (antibody, IgG1, V domains shown, Full IgG1/kappa antibody, VH fused at its C-terminus to the IgG1 constant region, VL to the kappa constant region; expressed in ExpiCHO-S; also called 原始抗体; not shown: human IgG1 heavy chain constant region, UniProtKB P01857.1; human Kappa light chain constant region, UniProtKB P01834.2) VH: QVQLVQSGAEVKKPGASVKVSCKASGYTFTDYYMYWVRQAPGQGLEWIGEINPTQGDVNFNEMFKSRVTMTVDTSTSTAYMELSSLRSEDTAVYYCTSIHYWGQGTLVTVSS VL: DIVMTQSPSSLSASVGDRVTITCKASQDIKTQLSWYQQKPGKAPKTLIYYATDLADGVPSRFSGSGSGQEFTLTISSLQPEDFATYYCLQHDDRPFTFGQGTKLEIK	1
